Results reported in the supplement of paper PMC7877785.
± gives the uncertainty stated by the source.

Assay: self-splicing fitness, log relative to wild type (ln ratio); higher = more splicing; Tetrahymena group I intron in knt gene, E. coli kanamycin selection, DiMSum; sequences stand for … in CUCUCU…GGAGGGAAAAGUUAUCAGGCAUGCACCUGGUAGCUAGUCUUUAAACCAAUAGAUUGCAUCGGUUUAAAAGGCAAGACCGUCAAAUUGCGGGAAAGGGGUCAACAGCCGUUCAGUACCAAGUCUCAGGGGAAACUUUGAGAUGGCCUUGCAAAGGGUAUGGUAAUAAGCUGACGGACAUGGUCCUAACCACGCAGCCAAGUCCUAAGUCAACAGAUCUUCUGUUGAUAUGGAUGCAGUUCACAGACUAAAUGUCGGUCGGGGAAGAUGUAUUCUUCUCAUAAGAUAUAGUCGGACCUCUCCUUAAUGGGAGCUAGCGGAUGAAGUGAUGCAACACUGGAGCCGCUGGGAACUAAUUUGUAUGCGAAAGUAUAUUGAUUAGUUUUGGAGUACUCGUGGUCG
Procedure, shortened: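 A randomised library covering all eight P1ex-region intron nucleotides was built with the intron in the knt kanamycin-resistance gene on pET-22b(+) and held in E. coli BL21(DE3). Cells were grown overnight at 37°C or 30°C on LB agar, with or without 25 μg/mL kanamycin, plus 100 μg/mL carbenicillin, 50 μM IPTG and 0.2% rhamnose, and pooled colonies were amplicon-sequenced on an Illumina HiSeq 2500. DiMSum fitness is the error-weighted combination of wild-type-normalised replicate fold changes, kanamycin versus none.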

Row | Sequence | self-splicing fitness (ln) (30 °C) | self-splicing fitness (ln) (37 °C)
1 | UGACAGCAAUAUUACGAUCU | -0.412 ± 0.07 | 0.277 ± 0.082
2 | CGUUAGCAAUAUUACGAAUA | -1.54 ± 0.17 | -1.69 ± 0.36
3 | GCCAAGCAAUAUUACGGCAA | -2.23 ± 0.17 | -1.06 ± 0.15
4 | UCCCAGCAAUAUUACGAUAC | -2.17 ± 0.19 | -2.45 ± 0.44
5 | GGCCAGCAAUAUUACGUAAC | -1.22 ± 0.082 | -1.19 ± 0.073
6 | GUUUAGCAAUAUUACGCCUG | -2.62 ± 0.25 | -1.39 ± 0.26
7 | CUGCAGCAAUAUUACGCUAU | -4.29 ± 0.25 | -3.04 ± 0.25
8 | AAUAAGCAAUAUUACGUAGG | -2.11 ± 0.16 | -0.935 ± 0.17
9 | UGUCAGCAAUAUUACGGGGG | -2.6 ± 0.14 | -1.64 ± 0.15
10 | UGAGAGCAAUAUUACGCAUU | -3.34 ± 0.38 | 
11 | ACCUAGCAAUAUUACGACUU | -0.837 ± 0.094 | 0.22 ± 0.1
12 | GCCAAGCAAUAUUACGGUGC | -3.11 ± 0.24 | -2.14 ± 0.21
13 | GAUGAGCAAUAUUACGGAGC | -3.9 ± 0.3 | -0.441 ± 0.13
14 | AGAUAGCAAUAUUACGGCCA | 0.117 ± 0.33 | -0.323 ± 0.26
15 | GUGAAGCAAUAUUACGGCCA | -0.0192 ± 0.11 | 0.468 ± 0.15
16 | CGUGAGCAAUAUUACGUGAC | -4.11 ± 0.36 | 
17 | CGCUAGCAAUAUUACGUCAA | -3.88 ± 0.23 | -3.07 ± 0.23
18 | CACUAGCAAUAUUACGCGAG | -2.13 ± 0.26 | -1.79 ± 0.17
19 | CAAUAGCAAUAUUACGAAGC | -3.01 ± 0.32 | -2.73 ± 0.32
20 | GGGGAGCAAUAUUACGAUGC | -1.06 ± 0.42 | 
21 | UCCAAGCAAUAUUACGUGUG | -2.08 ± 0.066 | -1.75 ± 0.081
22 | ACCGAGCAAUAUUACGAGAG | -3.89 ± 0.28 | -2.63 ± 0.18
23 | GGCCAGCAAUAUUACGGCCC | -2.83 ± 0.42 | 
24 | CGGCAGCAAUAUUACGUGGU | -4.44 ± 0.25 | -1.93 ± 0.12
25 | UAGAAGCAAUAUUACGUAAA | -2.04 ± 0.14 | -1.33 ± 0.14

Row | Sequence | self-splicing fitness (ln) (30 °C) | self-splicing fitness (ln) (37 °C)
26 | AAGCAGCAAUAUUACGACGC | -0.811 ± 0.092 | -0.525 ± 0.13
27 | CGGCAGCAAUAUUACGCCCC | -1.66 ± 0.31 | -0.44 ± 0.36
28 | CGGGAGCAAUAUUACGCUUU |  | -0.957 ± 0.27
29 | UCCAAGCAAUAUUACGUGCC | -3.87 ± 0.36 | -2.28 ± 0.26
30 | GCACAGCAAUAUUACGGUGG | -1.54 ± 0.048 | -1.35 ± 0.07
31 | GCACAGCAAUAUUACGAGAG | -2.96 ± 0.14 | -1.33 ± 0.11
32 | GUAGAGCAAUAUUACGAGUC | -2.19 ± 0.17 | -1.47 ± 0.24
33 | UCGCAGCAAUAUUACGUGAG | -0.263 ± 0.042 | -0.325 ± 0.063
34 | AAUAAGCAAUAUUACGUUCU | -0.338 ± 0.077 | 0.0226 ± 0.11
35 | ACGCAGCAAUAUUACGCACU | -0.177 ± 0.08 | 0.479 ± 0.11
36 | CUGUAGCAAUAUUACGCUAC | -3.21 ± 0.35 | -1.39 ± 0.32
37 | GCGGAGCAAUAUUACGGCGC | -2.22 ± 0.36 | 
38 | ACAGAGCAAUAUUACGGCAU | -3.25 ± 0.23 | -0.707 ± 0.17
39 | UGUGAGCAAUAUUACGCGAG | -2.69 ± 0.22 | -1.63 ± 0.23
40 | UAUAAGCAAUAUUACGAAUU | -2.74 ± 0.19 | -0.731 ± 0.2
41 | GUUAAGCAAUAUUACGCGAC | -3.02 ± 0.21 | -2.15 ± 0.22
42 | GGCCAGCAAUAUUACGGCAC | -1.58 ± 0.15 | -1.41 ± 0.19
43 | GGGUAGCAAUAUUACGGUCG | -0.207 ± 0.12 | -0.642 ± 0.096
44 | CAGUAGCAAUAUUACGUGCG | -0.0402 ± 0.068 | 0.239 ± 0.088
45 | ACACAGCAAUAUUACGCCGA | -1.15 ± 0.08 | -1.34 ± 0.094
46 | AGCGAGCAAUAUUACGUGUU | -3.06 ± 0.16 | -2.79 ± 0.26
47 | GUUAAGCAAUAUUACGCAGA | -2.33 ± 0.14 | -2.85 ± 0.14
48 | UGUCAGCAAUAUUACGUACG | -0.208 ± 0.15 | 0.45 ± 0.15
49 | CCUGAGCAAUAUUACGGAUA | -3.44 ± 0.32 | -1.92 ± 0.23
50 | CAGAAGCAAUAUUACGCUGG | -2.84 ± 0.15 | -2.21 ± 0.15
